{"source": "patent US20240409614A1", "about": "(DANMARKS TEKNISKE UNIVERSITET, published 2024)", "binders": {"B1": {"name": "A1AT-M351V/L353A/M358V (other)", "chain": "EDPQGDAAQKTDTSHHDQDHPTFNKITPNLAEFAFSLYRQLAHQSNSTNIFFSPVSIATAFAMLSLGTKADTHDEILEGLNFNLTEIPEAQIHEGFQELLRTLNQPDSQLQLTTGNGLFLSEGLKLVDKFLEDVKKLYHSEAFTVNFGDTEEAKKQINDYVEKGTQGKIVDLVKELDRDTVFALVNYIFFKGKWERPFEVKDTEEEDFHVDQVTTVKVPMMKRLGMFNIQHCKKLSSWVLLMKYLGNATAIFFLPDEGKLQHLENELTHDIITKFLENEDRRSASLHLPKLSITGTYDLKSVLGQLGITKVFSNGADLSGVTEEAPLKLSKAVHKAVLTIDEKGTEAAGAVFAEAIPVSIPPEVKFNKPFVFLMIEQNTKSPLFMGKVVNPTQK"}, "B2": {"name": "A1AT-M351V/L353T/M358V (other)", "chain": "B1 chain with A353T"}, "B3": {"name": "A1AT-M351V/L353S/M358V (other)", "chain": "B1 chain with A353S"}}, "note": "Positions count from the first letter of the chain named. Names and notes keep the numbering of the source."}
{"biological_target": "elastase (EnzChek Elastase Assay kit, Invitrogen)", "assay": "cell-based or functional assay", "units": {"IC50 (anti-elastase activity), first determination": "nM", "IC50 (anti-elastase activity), second determination": "nM"}}
{"binder": "B1", "IC50 (anti-elastase activity), first determination": 74.6, "IC50 (anti-elastase activity), second determination": 78.2}
{"binder": "B2", "IC50 (anti-elastase activity), first determination": 98.9, "IC50 (anti-elastase activity), second determination": 115}
{"binder": "B3", "IC50 (anti-elastase activity), first determination": 86.9, "IC50 (anti-elastase activity), second determination": 108}
